{"source": "patent US20240400711A1", "about": "(SOUND BIOPHARMACEUTICALS, published 2024)", "binders": {"B1": {"name": "FTL004-1 (antibody, human IgG1, kappa)", "heavy": "not shown", "light": "DIVLTQSPASLAVSPGQRATITCRASESVDNFGITFMHWYQQKPGQPPKLLIYRASNLESGVPARFSGSGSRTDFTLTINPVEANDTANYYCQQSSKDPRTFGQGTKLEIKRTVAAPSVFIFPPSDEQLKSGTASVVCLLNNFYPREAKVQWKVDNALQSGNSQESVTEQDSKDSTYSLSSTLTLSKADYEKHKVYACEVTHQGLSSPVTKSFNRGEC", "notes": "copies: 2 + 2"}, "B2": {"name": "Daratumumab (antibody, V domains shown)", "VH": "EVQLLESGGGLVQPGGSLRLSCAVSGFTFNSFAMSWVRQAPGKGLEWVSAISGSGGGTYYADSVKGRFTISRDNSKNTLYLQMNSLRAEDTAVYFCAKDKILWFGEPVFDYWGQGTLVTVSS", "VL": "not shown"}, "B3": {"name": "H2 antibody (antibody, V domains shown)", "VH": "EVQLQESGAELVRSGASVKMSCKASGYTFTDYNVHWIKQTPGQGLEWIGYFYPRNGATHYNQKFTGKATLTADTSSSTAYIQISSLTSEDSAVYFCARGETPGTFPYWGQGTLVTVSA", "VL": "DIVLTQSPASLTVSLGQRATISCRASESVDNFGITFMHWYQQKPGQPPKLLIYRASNLESGIPARFSGSGSRTDFTLTIDPVETDDVATYYCQQSSKDPRTFGGGTKLEIK", "notes": "Murine monoclonal antibody from a BALB/c hybridoma; also called H2 mAb; Hybridoma-2"}, "B4": {"name": "FTL004-7 (antibody, human IgG1, kappa)", "heavy": "not shown", "light": "B1 light", "notes": "copies: 2 + 2"}, "B5": {"name": "FTL004-hu-10 (antibody, human IgG1, kappa, V domains shown)", "VH": "QVQLVQSGAEVKKPGASVKVSCKASGYTFTDYNVHWIRQAPGQGLEWIGYFYPRNGATHYAQKFQGRVTMTVDTSTSTAYMELSSLRSEDTAVYYCARGETPGTFPYWGQGTLVTVSS", "VL": "EIVLTQSPATLSLSPGERATLSCRASESVDNFGITFMHWYQQKPGQAPRLLIYRASNLESGIPARFSGSGSRTDFTLTISSLEPEDFAVYYCQQSSKDPRTFGQGTKLEIKR", "notes": "also called FLT004-hu-10; FTL004-hum-10"}, "B6": {"name": "FTL004-hu-14 (antibody, human IgG1, kappa, V domains shown)", "VH": "B5 VH with Q1E, S17T, V20I, R38Q, Q43K, Q62E, M70L, V72A, S77D", "VL": "DIVLTQSPASLAVSPGQRATITCRASESVDNFGITFMHWYQQKPGQPPKLLIYRASNLESGVPARFSGSGSRTDFTLTINPVEANDTANYYCQQSSKDPRTFGQGTKLEIKR", "notes": "also called FLT004-hu-14; FTL004-hum-14"}, "B7": {"name": "FTL004-hu-18 (antibody, human IgG1, kappa, V domains shown)", "VH": "EVQLVQSGAEVKKPGATVKISCKASGYTFTDYNVHWIQQAPGKGLEWIGYFYPRNGATHYNQKFTGRATLTADTSTDTAYMEISSLRSEDTAVYFCARGETPGTFPYWGQGTLVTVSS", "VL": "DIQLTQSPSSLSASVGDRVTITCQASESVDNFGITFMHWYQQKPGKAPKLLIYRASNLETGVPSRFSGSGSRTDFTFTISSLQPEDIATYYCQQSSKDPRTFGQGTKLEIKR", "notes": "also called FLT004-hu-18; FTL004-hum-18"}, "B8": {"name": "FTL004-hu-6 (antibody, human IgG1, kappa)", "heavy": "not shown", "light": "DIQLTQSPSSLSASVGDRVTITCQASESVDNFGITFMHWYQQKPGKAPKLLIYRASNLETGVPSRFSGSGSRTDFTFTISSLQPEDIATYYCQQSSKDPRTFGQGTKLEIKRTVAAPSVFIFPPSDEQLKSGTASVVCLLNNFYPREAKVQWKVDNALQSGNSQESVTEQDSKDSTYSLSSTLTLSKADYEKHKVYACEVTHQGLSSPVTKSFNRGEC", "notes": "Fc before engineering; also called FLT004-hu-6; FTL004-hum-6"}, "B9": {"name": "FTL004-hu-7 (antibody, human IgG1, kappa)", "heavy": "not shown", "light": "B1 light", "notes": "Fc before engineering; also called FLT004-hu-7; FTL004-hum-7"}, "B10": {"name": "FTL004-hu-1 (antibody, human IgG1, kappa)", "heavy": "not shown", "light": "B1 light", "notes": "human IgG1 type constant regions, Fc before engineering; also called FLT004-hu-1; FTL004-hum-1"}, "B11": {"name": "FTL004-hu-16 (antibody, human IgG1, kappa, V domains shown)", "VH": "B7 VH with N61A, Q62E, T65Q, A68V, I83L, F95Y", "VL": "B5 VL", "notes": "also called FLT004-hu-16; FTL004-hum-16"}, "B12": {"name": "FTL004-6 (antibody, human IgG1, kappa)", "heavy": "not shown", "light": "B8 light"}}, "note": "Numbering of substitutions follows the chain as printed.", "data": [{"target": "T1, rhesus macaque erythrocytes (rhesus macaque)", "T1 chain": "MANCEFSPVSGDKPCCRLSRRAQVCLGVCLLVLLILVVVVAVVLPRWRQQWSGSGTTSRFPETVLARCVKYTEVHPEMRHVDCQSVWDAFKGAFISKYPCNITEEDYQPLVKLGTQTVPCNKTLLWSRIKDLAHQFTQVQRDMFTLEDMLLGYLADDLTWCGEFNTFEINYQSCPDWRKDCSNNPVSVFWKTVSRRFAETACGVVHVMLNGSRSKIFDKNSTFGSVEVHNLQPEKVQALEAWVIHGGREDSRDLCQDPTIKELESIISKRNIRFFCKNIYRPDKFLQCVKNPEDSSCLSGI", "assay": "flow cytometry on rhesus macaque erythrocytes", "units": {"EC50": "µg/mL"}, "values": [{"binder": "B1", "EC50": "2 to 5"}]}, {"target": "T2, CD38 on CD38-positive cells (human, UniProt P28907 1-300)", "T2 construct": "whole, on cells; also called CD38 on H211, SU-DHL-6, Daudi, Ramos (Romas), Raji, SU-DHL-1, DU145, H157 cells", "assay": "flow cytometry on SU-DHL-6 cells (B cell lymphoma), MFI against antibody concentration [table, row SU-DHL-6]", "units": {"EC50": "µg/mL"}, "values": [{"binder": "B2", "EC50": 0.548}]}, {"target": "T2, CD38 on CD38-positive cells", "assay": "flow cytometry on NCI-H211 cells (small cell lung cancer), MFI against antibody concentration [table, row NCI-H211]", "units": {"EC50": "µg/mL"}, "values": [{"binder": "B1", "EC50": 0.555}]}, {"target": "T3, mouse CD38 antigen protein (mouse, UniProt P56528 45-304, limits assumed)", "T3 construct": "also called mouse antigen", "T3 sequence (looked up)": "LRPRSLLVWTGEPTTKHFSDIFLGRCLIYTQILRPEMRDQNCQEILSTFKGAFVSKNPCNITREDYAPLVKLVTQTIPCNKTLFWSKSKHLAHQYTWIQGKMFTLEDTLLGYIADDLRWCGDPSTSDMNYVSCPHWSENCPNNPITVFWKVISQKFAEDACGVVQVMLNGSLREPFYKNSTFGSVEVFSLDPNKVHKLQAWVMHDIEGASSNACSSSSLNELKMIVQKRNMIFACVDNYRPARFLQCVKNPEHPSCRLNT", "assay": "ELISA on coated mouse CD38 antigen (1 µg/mL) [panel Mouse CD38]", "values": [{"binder": "B3", "binding result": "no binding (tested: 300 µg/ml)"}]}, {"target": "FcγRIIIa(F176) (UniProt P08637 17-208, limits assumed)", "sequence (P08637 17-208 limits assumed)": "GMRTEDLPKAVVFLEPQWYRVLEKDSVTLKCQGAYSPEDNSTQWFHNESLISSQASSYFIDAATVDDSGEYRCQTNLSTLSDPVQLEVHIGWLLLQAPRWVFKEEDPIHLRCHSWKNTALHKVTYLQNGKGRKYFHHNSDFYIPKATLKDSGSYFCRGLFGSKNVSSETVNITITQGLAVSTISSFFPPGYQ", "assay": "kinetics, FcγRIIIa as ligand, antibody as analyte", "units": {"Kd": "nM", "koff": "s⁻¹", "kon": "M⁻¹ s⁻¹"}, "values": [{"binder": "B1", "Kd": 19.5}, {"binder": "B4", "Kd": 22.7, "koff": 0.0136, "kon": 599000}]}, {"target": "FcγRIIIa (V176) (UniProt P08637 17-208, limits assumed)", "sequence (P08637 17-208 F176V limits assumed)": "as the sequence (P08637 17-208 limits assumed) above, with F160V counted along it", "assay": "kinetics, FcγRIIIa as ligand, antibody as analyte", "units": {"Kd": "nM", "koff": "s⁻¹", "kon": "M⁻¹ s⁻¹"}, "values": [{"binder": "B1", "Kd": 29.5, "koff": 0.0229, "kon": 778000}, {"binder": "B4", "Kd": 36.9, "koff": 0.021, "kon": 570000}]}, {"target": "T4, rat CD38 antigen protein (rat, UniProt Q64244 45-303, limits assumed)", "T4 construct": "also called rat antigen", "T4 sequence (looked up)": "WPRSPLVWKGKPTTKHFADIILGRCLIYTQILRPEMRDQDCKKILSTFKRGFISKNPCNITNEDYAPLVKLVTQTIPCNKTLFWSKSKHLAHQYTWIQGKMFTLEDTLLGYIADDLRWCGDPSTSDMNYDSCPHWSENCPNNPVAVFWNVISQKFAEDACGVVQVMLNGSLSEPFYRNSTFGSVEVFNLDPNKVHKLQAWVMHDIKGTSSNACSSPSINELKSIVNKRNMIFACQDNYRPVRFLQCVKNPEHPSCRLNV", "assay": "ELISA on coated rat CD38 antigen (1 µg/mL) [panel Rat CD38]", "values": [{"binder": "B3", "binding result": "no binding (tested: 300 µg/ml)"}]}, {"target": "T5, recombinant extracellular domain of CD38 (human, UniProt P28907 43-300)", "T5 construct": "also called CD38 extracellular domain; AtaGenix ATMP00140HU", "assay": "Biacore SPR", "units": {"Kd": "nM", "koff": "s⁻¹", "kon": "M⁻¹ s⁻¹"}, "values": [{"binder": "B3", "Kd": 14.6, "koff": 0.000969, "kon": 66100}, {"binder": "B2", "Kd": 12.2, "koff": 0.00363, "kon": 297000}]}, {"target": "T6, human CD38 antigen protein (coated in ELISA) (human, UniProt P28907 43-300, limits assumed)", "T6 construct": "also called the antigen CD38; human antigen", "assay": "ELISA on coated CD38 antigen, OD (450 nm) against antibody concentration (ng/ml) [Plate3]", "units": {"EC50 (read off the curve)": "µg/mL"}, "values": [{"binder": "B5", "EC50 (read off the curve)": "~0.3"}, {"binder": "B6", "EC50 (read off the curve)": "~0.5"}]}, {"target": "T5, recombinant extracellular domain of CD38", "assay": "Biacore SPR", "remark": "another data set of the same source", "units": {"Kd": "nM", "koff": "s⁻¹", "kon": "M⁻¹ s⁻¹"}, "values": [{"binder": "B7", "Kd": 4.16, "koff": 0.000788, "kon": 189000}, {"binder": "B3", "Kd": 2.02, "koff": 0.0005, "kon": 248000}, {"binder": "B8", "Kd": 2.44, "koff": 0.000677, "kon": 277000}, {"binder": "B9", "Kd": 2.4, "koff": 0.000766, "kon": 320000}, {"binder": "B10", "Kd": 1.42}, {"binder": "B2", "Kd": 1.96, "koff": 0.000355, "kon": 181000}, {"binder": "B5", "Kd": 14.9, "koff": 0.00241, "kon": 162000}, {"binder": "B6", "Kd": 22.4, "koff": 0.00466, "kon": 208000}, {"binder": "B11", "Kd": 25.2, "koff": 0.00459, "kon": 182000}]}, {"target": "T2, CD38 on CD38-positive cells", "assay": "flow cytometry on CD38-positive H211 cells", "units": {"EC50": "µg/mL"}, "values": [{"binder": "B2", "EC50": 1.94}]}, {"target": "T2, CD38 on CD38-positive cells", "assay": "cell-based or functional assay", "units": {"Rate of apoptosis (%), Daudi cells": "%", "Rate of apoptosis (%), Raji cells": "%", "Rate of apoptosis (%), Romas cells": "%", "Rate of apoptosis (%), SU-DHL-6 cells": "%"}, "values": [{"binder": "B8", "Rate of apoptosis (%), Daudi cells": 29.3, "Rate of apoptosis (%), Raji cells": 13.8, "Rate of apoptosis (%), Romas cells": 63.6, "Rate of apoptosis (%), SU-DHL-6 cells": 16.8}, {"binder": "B12", "Rate of apoptosis (%), Daudi cells": 36, "Rate of apoptosis (%), Raji cells": 13.9, "Rate of apoptosis (%), Romas cells": 57, "Rate of apoptosis (%), SU-DHL-6 cells": 15.1}, {"binder": "B9", "Rate of apoptosis (%), Daudi cells": 34.5, "Rate of apoptosis (%), Raji cells": 12.1, "Rate of apoptosis (%), Romas cells": 31.1, "Rate of apoptosis (%), SU-DHL-6 cells": 19.9}, {"binder": "B1", "Rate of apoptosis (%), Daudi cells": 40.9, "Rate of apoptosis (%), Raji cells": 7.14, "Rate of apoptosis (%), Romas cells": 64.2, "Rate of apoptosis (%), SU-DHL-6 cells": 21.2}, {"binder": "B10", "Rate of apoptosis (%), Daudi cells": 36.9, "Rate of apoptosis (%), Raji cells": 14.8, "Rate of apoptosis (%), Romas cells": 62.7, "Rate of apoptosis (%), SU-DHL-6 cells": 20.2}, {"binder": "B4", "Rate of apoptosis (%), Daudi cells": 37.4, "Rate of apoptosis (%), Raji cells": 17.8, "Rate of apoptosis (%), Romas cells": 60.3, "Rate of apoptosis (%), SU-DHL-6 cells": 20.3}, {"binder": "B2", "Rate of apoptosis (%), Daudi cells": 10.6, "Rate of apoptosis (%), Raji cells": 5.73, "Rate of apoptosis (%), Romas cells": 9.78, "Rate of apoptosis (%), SU-DHL-6 cells": 10.4}]}]}
